The target of one experiment is LRP5 (human (Huh-7 human liver reporter …, UniProt O75197)). The experiment in a line: cell-based or functional assay.
A further experiment has as its target LRP6 (human (Huh-7 human liver reporter …, UniProt O75581)). The experiment in a line: cell-based or functional assay.
The next experiment deals with T1, Fzd5 CRD (biotinylated) (UniProt Q13467 27-155, limits assumed, biotinylated (site not stated)).
T1 construct: domain: CRD
T1 sequence (looked up): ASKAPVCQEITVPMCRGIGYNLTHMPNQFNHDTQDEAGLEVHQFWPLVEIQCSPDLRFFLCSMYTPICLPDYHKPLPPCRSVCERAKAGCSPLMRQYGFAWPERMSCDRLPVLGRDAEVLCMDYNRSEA
The experiment in a line: BLI (Octet Red 96), biotinylated Fzd5 CRD captured on SA biosensor, R2M13 as analyte at several concentrations, 1:1 fit; the legend paragraph 32 says IgG, the methods paragraph 311 say R2M13 Fab. The method, then:
(§1) Biotinylated CRDs of Fzds diluted to 25 nM in the running buffer (PBS, 0.05% Tween-20, 0.5% BSA, pH 7.2) were captured to the SA biosensor followed by dipping into wells containing the R2M13 Fab protein at different concentrations in running buffer or into a well with only running buffer as a reference channel. KD for each binder was calculated by Octet System software, based on fitting to a 1:1 binding model. Binding specificities of R2M13 IgG to 10 Fzds were also examined by the BLI assay. Biotinylated Fzd CRDs (H. Chen, Lu, Lee, & Li, 2020) diluted to 50 nM in the running buffer were captured to the SA biosensor followed by dipping into wells containing R2M13 IgG at 200 nM in running buffer.

For the next experiment, the target named is T2, Fzd8 CRD (biotinylated) (UniProt Q9H461 28-155, limits assumed, biotinylated (site not stated)).
T2 construct: domain: CRD
T2 sequence (looked up): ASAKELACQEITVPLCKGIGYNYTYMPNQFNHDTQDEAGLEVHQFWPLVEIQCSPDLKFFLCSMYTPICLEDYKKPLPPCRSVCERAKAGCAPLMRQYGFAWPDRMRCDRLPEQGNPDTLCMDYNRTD
Description: BLI (Octet Red 96), biotinylated Fzd8 CRD captured on SA biosensor, R2M13 as analyte at several concentrations, 1:1 fit; the legend paragraph 33 says IgG, the methods paragraph 311 say R2M13 Fab. The method, then: as §1

In experiment [1] the target is T3, biotinylated LRP6E3E4 (UniProt O75581 631-1246, limits assumed, biotinylated (site not stated)).
T3 construct: domain: E3E4; also called Lrp6E3E4 domain; Lrp6 receptor
T3 sequence (looked up): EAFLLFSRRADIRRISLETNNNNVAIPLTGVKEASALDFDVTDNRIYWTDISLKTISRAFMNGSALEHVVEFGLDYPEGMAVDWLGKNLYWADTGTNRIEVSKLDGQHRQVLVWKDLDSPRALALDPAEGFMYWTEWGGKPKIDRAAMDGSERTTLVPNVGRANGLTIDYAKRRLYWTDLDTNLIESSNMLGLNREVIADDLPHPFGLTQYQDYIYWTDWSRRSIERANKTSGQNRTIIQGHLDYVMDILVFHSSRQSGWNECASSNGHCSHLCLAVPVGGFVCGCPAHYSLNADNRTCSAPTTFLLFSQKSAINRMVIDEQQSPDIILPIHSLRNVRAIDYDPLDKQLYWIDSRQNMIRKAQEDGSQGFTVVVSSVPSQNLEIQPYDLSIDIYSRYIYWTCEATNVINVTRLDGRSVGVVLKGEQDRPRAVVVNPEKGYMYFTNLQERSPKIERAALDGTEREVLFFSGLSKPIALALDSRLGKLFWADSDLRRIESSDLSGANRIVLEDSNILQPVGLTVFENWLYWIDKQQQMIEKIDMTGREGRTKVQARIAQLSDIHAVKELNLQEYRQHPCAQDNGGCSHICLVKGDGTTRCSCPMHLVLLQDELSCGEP
Description: BLI (Octet Red 96), biotinylated LRP6E3E4 on streptavidin sensor, 1:1 fit; SEC fraction D3 (second block). As to the method: (§2) Proteins were purified using His-Complete resin (Roche, USA) following standard procedures. Expression levels and homogeneity of VHH26 and its humanized variants were analyzed by SDS-PAGE and SEC (size-exclusion chromatography). […] Biotinylated LRP6E3E4 diluted to 50 nM in the running buffer (PBS, 0.05% Tween-20, 0.5% BSA, pH 7.2) were captured to the SA biosensor followed by dipping into wells containing the indicated VHH26 proteins at different concentrations in running buffer or into a well with only running buffer as a reference channel. KD for each binder was calculated by Octet System software, based on fitting to a 1:1 binding model. Kinetics values (Kon, Koff, KD) from each experiment was calculated from seven technical replicates of different concentrations of the molecule tested with Octet Data Analysis 9.0 (PALL ForteBio, Fremont, CA).
(§3) Central fractions of each of these peaks were examined by Octect-BLI for their ability interact with Lrp6. Kinetics parameters such as kon, koff, and KD for interaction between VHH26 constructs and Lrp6E3E4 domain are listed in Table 2.
Background: BLI is a label-free optical method that tracks binding on a fibre tip over time.

Experiment [2] has as its target T3, biotinylated LRP6E3E4. The experiment in a line: BLI (Octet Red 96), biotinylated LRP6E3E4 on streptavidin sensor, 1:1 fit; SEC fraction D3 (first block). The method, then: as §2, §3
In experiment [3] the target is T3, biotinylated LRP6E3E4. Description: BLI (Octet Red 96), biotinylated LRP6E3E4 on streptavidin sensor, 1:1 fit; SEC fraction C3. The method, then:
as §2, §3

The target in experiment [4] is T3, biotinylated LRP6E3E4. Description: BLI (Octet Red 96), biotinylated LRP6E3E4 on streptavidin sensor, 1:1 fit; SEC fraction C1. The method, then:
as §2, §3

In experiment [5] the target is T3, biotinylated LRP6E3E4. The experiment in a line: BLI (Octet Red 96), biotinylated LRP6E3E4 on streptavidin sensor, 1:1 fit; SEC fraction G1. As to the method:
as §2, §3

For experiment [6], the target named is T3, biotinylated LRP6E3E4. Description: BLI (Octet Red 96), biotinylated LRP6E3E4 on streptavidin sensor, 1:1 fit; SEC fraction G3. As to the method:
as §2, §3

Where a chain is given by its changes, count along the chain named.

Data on 14 molecules can be found in patent US20240150473A1 (SURROZEN OPERATING, published 2024).

LRP5 (human, sequence (O75197 32-1615 limits assumed): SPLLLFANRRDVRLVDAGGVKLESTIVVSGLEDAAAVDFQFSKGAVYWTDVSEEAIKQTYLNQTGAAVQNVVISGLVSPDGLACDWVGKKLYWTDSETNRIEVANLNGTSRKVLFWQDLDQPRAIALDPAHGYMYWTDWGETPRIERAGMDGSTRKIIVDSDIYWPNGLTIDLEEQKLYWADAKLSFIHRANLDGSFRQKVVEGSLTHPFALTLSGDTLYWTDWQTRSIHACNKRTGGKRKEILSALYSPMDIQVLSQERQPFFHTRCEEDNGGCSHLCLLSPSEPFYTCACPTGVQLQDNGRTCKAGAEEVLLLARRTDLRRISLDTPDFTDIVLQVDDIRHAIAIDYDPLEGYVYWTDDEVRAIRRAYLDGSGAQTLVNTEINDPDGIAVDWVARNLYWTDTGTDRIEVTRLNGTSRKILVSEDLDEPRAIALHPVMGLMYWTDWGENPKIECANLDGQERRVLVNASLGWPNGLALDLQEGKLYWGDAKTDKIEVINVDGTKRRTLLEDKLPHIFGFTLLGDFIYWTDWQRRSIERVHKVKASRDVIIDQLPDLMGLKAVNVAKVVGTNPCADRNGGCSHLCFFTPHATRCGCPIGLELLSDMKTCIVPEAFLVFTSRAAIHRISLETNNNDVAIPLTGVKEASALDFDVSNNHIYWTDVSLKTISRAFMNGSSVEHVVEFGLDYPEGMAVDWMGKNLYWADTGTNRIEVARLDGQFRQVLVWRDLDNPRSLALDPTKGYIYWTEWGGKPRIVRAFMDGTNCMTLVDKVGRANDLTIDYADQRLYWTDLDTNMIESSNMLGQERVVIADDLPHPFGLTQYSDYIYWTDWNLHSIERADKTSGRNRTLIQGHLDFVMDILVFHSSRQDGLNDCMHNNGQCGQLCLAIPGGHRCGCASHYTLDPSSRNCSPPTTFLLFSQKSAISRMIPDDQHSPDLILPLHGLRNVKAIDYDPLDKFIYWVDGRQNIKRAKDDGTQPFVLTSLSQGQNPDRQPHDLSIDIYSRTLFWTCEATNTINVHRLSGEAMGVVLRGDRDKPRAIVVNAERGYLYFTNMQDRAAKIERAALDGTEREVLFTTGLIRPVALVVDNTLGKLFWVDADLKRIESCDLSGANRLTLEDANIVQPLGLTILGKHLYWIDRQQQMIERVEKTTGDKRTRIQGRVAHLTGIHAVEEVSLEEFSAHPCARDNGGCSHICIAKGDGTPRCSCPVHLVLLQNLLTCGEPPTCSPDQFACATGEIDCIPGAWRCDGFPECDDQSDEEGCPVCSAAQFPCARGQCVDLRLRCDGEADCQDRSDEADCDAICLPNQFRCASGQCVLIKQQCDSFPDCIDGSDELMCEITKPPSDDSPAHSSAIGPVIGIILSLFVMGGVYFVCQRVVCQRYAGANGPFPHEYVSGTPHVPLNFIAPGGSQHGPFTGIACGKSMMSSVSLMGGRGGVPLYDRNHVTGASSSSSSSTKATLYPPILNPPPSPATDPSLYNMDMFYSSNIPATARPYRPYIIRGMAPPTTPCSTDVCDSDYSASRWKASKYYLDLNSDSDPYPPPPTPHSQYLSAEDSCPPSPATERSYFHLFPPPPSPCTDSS
LRP6 (human, sequence (O75581 20-1613 limits assumed): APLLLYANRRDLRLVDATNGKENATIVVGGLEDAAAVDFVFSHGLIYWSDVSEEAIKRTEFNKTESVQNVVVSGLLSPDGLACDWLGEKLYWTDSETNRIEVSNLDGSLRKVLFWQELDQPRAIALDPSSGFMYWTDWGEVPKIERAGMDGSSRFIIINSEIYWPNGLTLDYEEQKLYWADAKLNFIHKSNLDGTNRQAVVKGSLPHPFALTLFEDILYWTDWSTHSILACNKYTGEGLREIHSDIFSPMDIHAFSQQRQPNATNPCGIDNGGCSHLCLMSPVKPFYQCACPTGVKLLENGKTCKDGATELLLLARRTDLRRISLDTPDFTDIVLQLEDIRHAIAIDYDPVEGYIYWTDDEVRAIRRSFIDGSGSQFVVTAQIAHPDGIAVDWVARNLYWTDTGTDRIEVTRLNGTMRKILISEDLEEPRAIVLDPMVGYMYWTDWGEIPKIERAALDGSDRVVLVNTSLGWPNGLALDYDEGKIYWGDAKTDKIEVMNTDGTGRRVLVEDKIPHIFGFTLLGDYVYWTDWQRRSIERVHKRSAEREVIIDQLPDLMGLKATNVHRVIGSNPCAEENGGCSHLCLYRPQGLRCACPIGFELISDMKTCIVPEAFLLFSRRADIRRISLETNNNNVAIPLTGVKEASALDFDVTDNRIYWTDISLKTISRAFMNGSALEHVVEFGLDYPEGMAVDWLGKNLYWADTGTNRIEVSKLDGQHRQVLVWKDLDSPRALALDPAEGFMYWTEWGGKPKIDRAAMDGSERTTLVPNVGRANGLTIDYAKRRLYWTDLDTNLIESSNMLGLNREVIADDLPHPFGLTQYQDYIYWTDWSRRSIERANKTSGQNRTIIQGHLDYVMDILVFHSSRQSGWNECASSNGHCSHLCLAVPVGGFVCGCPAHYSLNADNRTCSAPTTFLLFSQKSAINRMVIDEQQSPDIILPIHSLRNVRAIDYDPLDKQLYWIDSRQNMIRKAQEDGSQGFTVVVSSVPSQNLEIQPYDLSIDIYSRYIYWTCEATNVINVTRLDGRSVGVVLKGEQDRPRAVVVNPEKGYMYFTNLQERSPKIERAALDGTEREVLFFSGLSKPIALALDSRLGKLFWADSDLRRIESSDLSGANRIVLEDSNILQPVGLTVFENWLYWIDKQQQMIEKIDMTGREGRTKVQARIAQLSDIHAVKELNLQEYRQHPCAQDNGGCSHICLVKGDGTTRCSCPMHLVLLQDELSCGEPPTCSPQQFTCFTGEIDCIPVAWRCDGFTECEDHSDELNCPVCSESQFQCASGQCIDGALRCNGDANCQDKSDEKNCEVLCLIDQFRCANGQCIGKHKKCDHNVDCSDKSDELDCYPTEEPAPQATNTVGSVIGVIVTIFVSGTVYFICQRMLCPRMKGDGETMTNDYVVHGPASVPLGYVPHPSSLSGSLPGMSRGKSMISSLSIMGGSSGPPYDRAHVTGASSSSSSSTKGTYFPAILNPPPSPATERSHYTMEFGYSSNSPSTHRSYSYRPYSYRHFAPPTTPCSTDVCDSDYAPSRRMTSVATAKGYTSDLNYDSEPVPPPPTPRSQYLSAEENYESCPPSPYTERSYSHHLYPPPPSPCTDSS

B1: VHH03, Parental LALAPG (bispecific antibody)
heavy chain (R2M13 VH-IgG1 LALAPG): EVQLLQSGAEVKKPGSSVKVSCKASGGTFTYRYLHWVRQAPGQGLEWMGGIIPIFGTGNYAQKFQGRVTITADESTSTAYMELSSLRSEDTAVYYCASSMVRVPYYYGMDVWGQGTLVTVSSASTKGPSVFPLAPSSKSTSGGTAALGCLVKDYFPEPVTVSWNSGALTSGVHTFPAVLQSSGLYSLSSVVTVPSSSLGTQTYICNVNHKPSNTKVDKKVEPKSCDKTHTCPPCPAPEAAGGPSVFLFPPKPKDTLMISRTPEVTCVVVDVSHEDPEVKFNWYVDGVEVHNAKTKPREEQYNSTYRVVSVLTVLHQDWLNGKEYKCKVSNKALGAPIEKTISKAKGQPREPQVYTLPPSREEMTKNQVSLTCLVKGFYPSDIAVEWESNGQPENNYKTTPPVLDSDGSFFLYSKLTVDKSRWQQGNVFSCSVMHEALHNHYTQKSLSLSPGK
light chain (VHH03-linker-R2M13 light chain): not shown
B1: the “EC50, Super TOPFlash (STF) luciferase reporter in Huh-7 STF cells; row LRP5 / VHH03, column Parental LALAPG EC50” value in the experiment with LRP5 was 0.11 nM.

B2: VHH03, Humanized LALAPG (bispecific antibody)
heavy chain (R2M13 VH-IgG1 LALAPG): B1 heavy chain (R2M13 VH-IgG1 LALAPG)
light chain (humanized VHH03-linker-R2M13 light chain): not shown
Regarding B2, the “EC50, Super TOPFlash (STF) luciferase reporter in Huh-7 STF cells; row LRP5 / VHH03, column Humanized LALAPG EC50” value with LRP5 turned out to be 1.8 nM.

B3: VHH36, Parental LALAPG (bispecific antibody, human IgG1, kappa, L234A L235A)
heavy chain (R2M13 VH-IgG1 LALAPG): B1 heavy chain (R2M13 VH-IgG1 LALAPG)
light chain (VHH36-linker-R2M13 light chain): not shown
As to B3, the “EC50, Super TOPFlash (STF) luciferase reporter in Huh-7 STF cells; row LRP5&6 / VHH36, column Parental LALAPG EC50 (nM); one value given for both LRP5 and LRP6” value in the experiment with LRP6 and with LRP5 was 0.06 nM throughout.

B4: VHH26, Parental LALAPG (bispecific antibody)
heavy chain (R2M13 VH-IgG1 LALAPG): B1 heavy chain (R2M13 VH-IgG1 LALAPG)
light chain (VHH26-linker-R2M13 light chain): not shown
With B4, the “EC50, Super TOPFlash (STF) luciferase reporter in Huh-7 STF cells; row LRP6 / VHH26, column Parental LALAPG EC50” value with LRP6 was found to be 1.1 nM.

B5: VHH36, Humanized LALAPG (bispecific antibody, human IgG1, kappa, L234A L235A)
heavy chain (R2M13 VH-IgG1 LALAPG): B1 heavy chain (R2M13 VH-IgG1 LALAPG)
light chain (humanized VHH36-linker-R2M13 light chain): not shown
B5: the “EC50, Super TOPFlash (STF) luciferase reporter in Huh-7 STF cells; row LRP5&6 / VHH36, column Humanized LALAPG EC50 (nM); one value given for both LRP5 and LRP6” value with LRP6 and in the experiment with LRP5 was 1.2 nM throughout.

B6: R2M13-26 humanized LALAPG (R2M13-h26) (bispecific antibody)
heavy: B1 heavy chain (R2M13 VH-IgG1 LALAPG)
light: not shown
As for B6, the “EC50, Super TOPFlash (STF) luciferase reporter in Huh-7 STF cells; row LRP6 / VHH26, column Humanized LALAPG EC50” value with LRP6 worked out at 0.63 nM.

B7: R2M13 IgG (the Fzd5,8 binder IgG of R2M13-26) (antibody, V domains shown)
VH: EVQLLQSGAEVKKPGSSVKVSCKASGGTFTYRYLHWVRQAPGQGLEWMGGIIPIFGTGNYAQKFQGRVTITADESTSTAYMELSSLRSEDTAVYYCASSMVRVPYYYGMDVWGQGTLVTVSS
VL: not shown
notes: also called R2M13 antibody
As a reminder, the Kd is the equilibrium constant for the complex coming apart. The low end stands for higher affinity, the high end for lower affinity. Regarding B7, the Kd turned out to be 57.5 nM with Fzd5 CRD (biotinylated) and 98.5 nM in the experiment with Fzd8 CRD (biotinylated).

B8: VHH26 (parental) (VHH)
VHH: DVQLVESGGGLVQAGGSLRLACAGSGRIFAIYDIAWYRHPPGNQRELVAMIRPVVTEIDYADSVKGRFTISRNNAMKTVYLQMNNLKPEDTAVYYCNAKRPWGSRDEYWGQGTQVTVSS
notes: Expressed in Expi293 cells with a C-terminal hexa-histidine tag; also called VHH26_His; parental VHH26
Regarding B8, the Kd with biotinylated LRP6E3E4 [1] came out at 22 nM; with biotinylated LRP6E3E4 [2] it was 17 nM.

B9: VHH26-H3 (VHH)
VHH: EVQLVESGGGLVQPGGSLRLSCAGSGRIFAIYDIAWYRQAPGKGREWVAMIRPVVTEIDYADSVKGRFTISRDNSKNTVYLQMNSLRAEDTAVYYCNAKRPWGSRDEYWGQGTTVTVSS
notes: Expressed in Expi293 cells with a C-terminal hexa-histidine tag; two SEC peaks were tested separately
Consider B9, for which the dissociation constant Kd with biotinylated LRP6E3E4 [3] amounted to 422 nM; in the experiment with biotinylated LRP6E3E4 [4], 3200 nM.

B10: VHH26-H4 (VHH)
VHH: B9 VHH with W47L
notes: as for B9
With B10, the Kd with biotinylated LRP6E3E4 [5] came out at 662 nM; with biotinylated LRP6E3E4 [6], 192 nM.

B11: VHH26-H5 (VHH)
VHH: B9 VHH with N77K
notes: as for B9
Regarding B11, the Kd was 109 nM in the experiment with biotinylated LRP6E3E4 [3] and 41 nM with biotinylated LRP6E3E4 [4].

B12: VHH26-H6 (VHH)
VHH: B9 VHH with W47L, N77K
notes: as for B9
Take B12: the dissociation constant Kd was 687 nM with biotinylated LRP6E3E4 [5] and 486 nM in the experiment with biotinylated LRP6E3E4 [6].

B13: VHH26-H1 (VHH)
VHH: B9 VHH with V5L, G24A, Y37V, R45L, A49S, V79L, N97A, A98K
notes: as for B9
For B13, binding in the experiment with biotinylated LRP6E3E4 [3] was put at a Kd of 281 nM. In other words, the sub-micromolar range.

B14: VHH26-H2 (VHH)
VHH: B9 VHH with R45L
notes: as for B9
For B14, the results for the Kd in the experiment with biotinylated LRP6E3E4 [5] and with biotinylated LRP6E3E4 [6] were 441 nM and 280 nM, respectively.
